Assay results from the supplement of paper PMC9732359.
± gives the uncertainty stated by the source.

Assay: protein stability index of a GFP-peptide fusion (yeast GPS) (PSI 1-4); higher = more stable; sorted into four equal gates, so the index is relative within each strain
Outline: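 Tiled 17-residue yeast protein peptides were fused downstream of GFP in a plasmid that also expresses Cherry, and the pooled library was carried in yeast. Mid-log cultures in leucine-free medium were sorted into four equal gates by GFP/Cherry fluorescence ratio, and plasmids from each gate were PCR-amplified and Illumina-sequenced, with reads assigned to strains by barcodes. The protein stability index for each peptide was each gate's read frequency times its gate number, summed.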

SHILNSHSLALNEITNS [DSN1]
protein stability index (doa10∆): 2.14 ± 0.033
protein stability index (pdr5∆): 2.41 ± 0.035
protein stability index (san1∆): 2.28 ± 0.037
protein stability index (ubr1∆): 2.36 ± 0.03

DIEAGDDDDNNESSSNT [DIS3]
protein stability index (doa10∆): 3.51 ± 0.26
protein stability index (pdr5∆): 3.4 ± 0.2
protein stability index (san1∆): 3.05 ± 0.11
protein stability index (ubr1∆): 2.79 ± 0.12

PIVIIFRALGIIPDGEI [RPB2]
protein stability index (doa10∆): 1.92 ± 0.048
protein stability index (pdr5∆): 1.79 ± 0.056
protein stability index (san1∆): 2.05 ± 0.063
protein stability index (ubr1∆): 2.41 ± 0.039

PIFSFGKQEENGDEGDD [YOR098C/NUP1]
protein stability index (doa10∆): 3.63 ± 0.14
protein stability index (pdr5∆): 3.65 ± 0.17
protein stability index (san1∆): 3.55 ± 0.096
protein stability index (ubr1∆): 3.32 ± 0.14

ILLRYHHNDISNDSQSH [YCG1]
protein stability index (doa10∆): 1.65 ± 0.15
protein stability index (pdr5∆): 1.28 ± 0.13
protein stability index (san1∆): 1.96 ± 0.2
protein stability index (ubr1∆): 1.51 ± 0.081

KKMTKKAKRSNLYTPKA [PRP8]
protein stability index (doa10∆): 2.9 ± 0.059
protein stability index (pdr5∆): 2.19 ± 0.038
protein stability index (san1∆): 2.39 ± 0.059
protein stability index (ubr1∆): 2.3 ± 0.031

NFLQESYEVEHVIQIPL [TAF14]
protein stability index (doa10∆): 2.49 ± 0.094
protein stability index (pdr5∆): 2.94 ± 0.092
protein stability index (san1∆): 2.55 ± 0.067
protein stability index (ubr1∆): 2.81 ± 0.082

DKKVTLITSEMFDAFVS [SIN4]
protein stability index (doa10∆): 1.56 ± 0.059
protein stability index (pdr5∆): 1.46 ± 0.049
protein stability index (san1∆): 1.36 ± 0.098
protein stability index (ubr1∆): 1.28 ± 0.042

RRRREGKTDYYQRKRLV [RPL5]
protein stability index (doa10∆): 3.31 ± 0.094
protein stability index (pdr5∆): 3.26 ± 0.079
protein stability index (san1∆): 3.13 ± 0.046
protein stability index (ubr1∆): 3.26 ± 0.035

YYDRKEELKNMFLYILK [RRI2]
protein stability index (doa10∆): 2.16 ± 0.22
protein stability index (pdr5∆): 1.95 ± 0.13
protein stability index (san1∆): 1.27 ± 0.11
protein stability index (ubr1∆): 1.52 ± 0.1

KNLQRESCEDILDLKEF [RTT102]
protein stability index (doa10∆): 3.59 ± 0.21
protein stability index (pdr5∆): 3.31 ± 0.13
protein stability index (san1∆): 3.17 ± 0.28
protein stability index (ubr1∆): 3.45 ± 0.16

VTVHSLTGEATANALPL [RPL4A]
protein stability index (doa10∆): 2.75 ± 0.069
protein stability index (pdr5∆): 2.76 ± 0.053
protein stability index (san1∆): 2.17 ± 0.052
protein stability index (ubr1∆): 2.86 ± 0.041

SSKTRNVLNRIQELEDQ [ITC1]
protein stability index (doa10∆): 1.35 ± 0.088
protein stability index (pdr5∆): 1.16 ± 0.051
protein stability index (ubr1∆): 1.18 ± 0.058

LRLPFSAAMSIDKLSDV [PRP8]
protein stability index (doa10∆): 2.43 ± 0.053
protein stability index (pdr5∆): 2.42 ± 0.038
protein stability index (san1∆): 2.24 ± 0.048
protein stability index (ubr1∆): 2.3 ± 0.033

GTLKVILNLYSSAHLIR [YML103C/NUP188]
protein stability index (doa10∆): 2.07 ± 0.15

QLIFRQQTGLVDAITRC [SNU114]
protein stability index (doa10∆): 2.97 ± 0.087
protein stability index (pdr5∆): 2.69 ± 0.058
protein stability index (san1∆): 3.04 ± 0.052
protein stability index (ubr1∆): 2.47 ± 0.041

IGFITSGTYHLNCGNGM [POP1]
protein stability index (doa10∆): 2.56 ± 0.1
protein stability index (pdr5∆): 2.93 ± 0.082
protein stability index (san1∆): 2.09 ± 0.093
protein stability index (ubr1∆): 2.92 ± 0.048

VNLEDNTQDLLLLLSLF [YML103C/NUP188]
protein stability index (doa10∆): 1.68 ± 0.13
protein stability index (pdr5∆): 2.7 ± 0.12
protein stability index (san1∆): 2.41 ± 0.14
protein stability index (ubr1∆): 2.47 ± 0.091

IDYALTAVKQGVTSLGI [PRE8]
protein stability index (doa10∆): 2.27 ± 0.072
protein stability index (pdr5∆): 2.07 ± 0.056
protein stability index (san1∆): 1.93 ± 0.071
protein stability index (ubr1∆): 1.62 ± 0.085

WAVTLDTSRPDLEWQEL [DSN1]
protein stability index (doa10∆): 3.35 ± 0.072
protein stability index (pdr5∆): 3.18 ± 0.065
protein stability index (san1∆): 3.13 ± 0.047
protein stability index (ubr1∆): 3.14 ± 0.033

VLSQFERSYPSEFANQN [ROX3]
protein stability index (doa10∆): 2.26 ± 0.098
protein stability index (pdr5∆): 3.15 ± 0.097
protein stability index (san1∆): 2.63 ± 0.15
protein stability index (ubr1∆): 2.78 ± 0.11

NLQGDLQAIQEKLNKTD [ITC1]
protein stability index (pdr5∆): 3.33 ± 0.21
protein stability index (san1∆): 3.33 ± 0.17
protein stability index (ubr1∆): 3.2 ± 0.16

EMIRGRSPEEIRRTFNI [SKP1]
protein stability index (ubr1∆): 2.34 ± 0.28

FLDYTTDNVSMYPSPTG [PRP8]
protein stability index (doa10∆): 2.85 ± 0.056
protein stability index (pdr5∆): 2.85 ± 0.06
protein stability index (san1∆): 2.7 ± 0.06
protein stability index (ubr1∆): 2.95 ± 0.057

DVLKENNDADKGRSYAY [RIP1]
protein stability index (doa10∆): 3.48 ± 0.13
protein stability index (pdr5∆): 3.5 ± 0.15
protein stability index (san1∆): 3.25 ± 0.092
protein stability index (ubr1∆): 3.03 ± 0.26

EGIIKPISKHSKQAIYT [RPS25A]
protein stability index (doa10∆): 1.65 ± 0.065
protein stability index (pdr5∆): 2.03 ± 0.057
protein stability index (san1∆): 1.47 ± 0.095
protein stability index (ubr1∆): 1.72 ± 0.056

FKRNAVFVGTIFAGAFV [QCR9]
protein stability index (doa10∆): 1.92 ± 0.064
protein stability index (pdr5∆): 1.58 ± 0.054
protein stability index (san1∆): 1.26 ± 0.12
protein stability index (ubr1∆): 1.67 ± 0.051

ESKLSLETLFNRWHSES [FAS2]
protein stability index (doa10∆): 3.26 ± 0.084
protein stability index (pdr5∆): 3.24 ± 0.1
protein stability index (san1∆): 3.1 ± 0.064
protein stability index (ubr1∆): 3.11 ± 0.065

ISSLMFDEEFDPFKTSS [IRR1]
protein stability index (san1∆): 2.7 ± 0.14
protein stability index (ubr1∆): 2.99 ± 0.26

QRFVGHKSDVMSVDIDK [ASC1]
protein stability index (doa10∆): 3.04 ± 0.095
protein stability index (pdr5∆): 3.06 ± 0.061
protein stability index (san1∆): 2.69 ± 0.082
protein stability index (ubr1∆): 2.96 ± 0.071

ALGMMTRISSQFEKSRK [RET1]
protein stability index (doa10∆): 1.39 ± 0.066
protein stability index (pdr5∆): 1.27 ± 0.09
protein stability index (san1∆): 1.37 ± 0.17
protein stability index (ubr1∆): 1.08 ± 0.06

KNDLFVIWSEDNDEKLI [RPO21]
protein stability index (doa10∆): 2.83 ± 0.077
protein stability index (pdr5∆): 2.55 ± 0.096
protein stability index (san1∆): 3.1 ± 0.045
protein stability index (ubr1∆): 2.44 ± 0.089

VKAAINFSNVTDLTNNS [YIL149C/MLP2]
protein stability index (doa10∆): 2.49 ± 0.044
protein stability index (pdr5∆): 3.11 ± 0.049
protein stability index (san1∆): 3.35 ± 0.04
protein stability index (ubr1∆): 2.62 ± 0.04

SIGEPGTQMTLKTFHFA [RPO31]
protein stability index (san1∆): 2.56 ± 0.096
protein stability index (ubr1∆): 2.65 ± 0.17

DKINQLSVVKYLLASLK [RPN9]
protein stability index (doa10∆): 2.02 ± 0.16
protein stability index (pdr5∆): 2.15 ± 0.2

HQGTPLGSHSSSQKDGN [REC8]
protein stability index (doa10∆): 3.21 ± 0.094
protein stability index (pdr5∆): 3.29 ± 0.093
protein stability index (san1∆): 2.88 ± 0.13
protein stability index (ubr1∆): 3.35 ± 0.089

NVGLCITIYDLLTVEEG [RPC25]
protein stability index (doa10∆): 1.45 ± 0.091
protein stability index (pdr5∆): 1.26 ± 0.067
protein stability index (san1∆): 1.45 ± 0.16
protein stability index (ubr1∆): 1.57 ± 0.076

QMDQQLQYTALTGSPNN [ARP7]
protein stability index (doa10∆): 2.91 ± 0.11
protein stability index (pdr5∆): 3.36 ± 0.096
protein stability index (san1∆): 3.33 ± 0.071
protein stability index (ubr1∆): 3.13 ± 0.063

ELEMIGGTNEDDFTDAI [YCS4]
protein stability index (pdr5∆): 3.2 ± 0.18
protein stability index (san1∆): 3.39 ± 0.069
protein stability index (ubr1∆): 3.7 ± 0.19

LLHETNDSFKGLITNKM [PRP8]
protein stability index (doa10∆): 3 ± 0.16
protein stability index (pdr5∆): 2.8 ± 0.071
protein stability index (san1∆): 3.06 ± 0.12
protein stability index (ubr1∆): 3.24 ± 0.12

HEIYGSMPLEQLIPIIL [SRB4]
protein stability index (doa10∆): 2.06 ± 0.06
protein stability index (pdr5∆): 2.08 ± 0.068
protein stability index (san1∆): 2.37 ± 0.08
protein stability index (ubr1∆): 1.72 ± 0.059

ILRKELSEEKEVIFTDV [MCD1]
protein stability index (doa10∆): 2.66 ± 0.15
protein stability index (pdr5∆): 3.02 ± 0.23
protein stability index (san1∆): 2.32 ± 0.12
protein stability index (ubr1∆): 2.73 ± 0.17

VYTQSNGKTRTLENTLK [RPS2]
protein stability index (doa10∆): 3.45 ± 0.17
protein stability index (pdr5∆): 3.16 ± 0.1
protein stability index (san1∆): 3.24 ± 0.075
protein stability index (ubr1∆): 3.38 ± 0.07

VKEEYDIWQSRDQGNDS [YIL149C/MLP2]
protein stability index (pdr5∆): 3.5 ± 0.19
protein stability index (san1∆): 3.33 ± 0.074
protein stability index (ubr1∆): 3.34 ± 0.11

NPNSTAITADLGSSEAE [YGL172W/NUP49]
protein stability index (doa10∆): 2.56 ± 0.24
protein stability index (pdr5∆): 2.4 ± 0.14
protein stability index (san1∆): 2.86 ± 0.22
protein stability index (ubr1∆): 2.76 ± 0.12

STLSNWSSEFAKWAPTL [SNF2]
protein stability index (doa10∆): 2.9 ± 0.054
protein stability index (pdr5∆): 2.45 ± 0.06
protein stability index (san1∆): 2.85 ± 0.055
protein stability index (ubr1∆): 2.26 ± 0.047

TSTKPSFSFGAPESMKS [YOR098C/NUP1]
protein stability index (doa10∆): 2.97 ± 0.053
protein stability index (pdr5∆): 3.07 ± 0.062
protein stability index (san1∆): 3.15 ± 0.043
protein stability index (ubr1∆): 3.1 ± 0.046

PGTITHGMFSSASVRAL [FAS1]
protein stability index (doa10∆): 2.53 ± 0.063
protein stability index (pdr5∆): 2.54 ± 0.064
protein stability index (san1∆): 2.53 ± 0.053
protein stability index (ubr1∆): 2.52 ± 0.037

FLIIVPKSTLDNWRREF [ISW2]
protein stability index (pdr5∆): 2.37 ± 0.27
protein stability index (san1∆): 1.94 ± 0.16
protein stability index (ubr1∆): 1.99 ± 0.22

IVKRLYEYGAVSVLLIS [BRR2]
protein stability index (doa10∆): 2.57 ± 0.061
protein stability index (pdr5∆): 2.39 ± 0.055
protein stability index (san1∆): 2.24 ± 0.099
protein stability index (ubr1∆): 1.64 ± 0.054

TCVTCHWNLPGERIFNK [SIR2]
protein stability index (doa10∆): 2.87 ± 0.14
protein stability index (pdr5∆): 2.88 ± 0.11
protein stability index (san1∆): 2.82 ± 0.091
protein stability index (ubr1∆): 3.19 ± 0.083
